Measurements as given in the nanobody polyreactivity screen of Harvey et al. (2022).

experiment: yeast display, Sf9 membrane polyspecificity reagent, FACS + sequencing; frameworks hold sequencing errors
Method in brief: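 Nanobodies from a synthetic yeast display library (Saccharomyces cerevisiae BJ5465), induced 36–48 hours with galactose, were stained 1 hour at 4 °C with 10% biotinylated, detergent-solubilized Sf9 membrane reagent, enriched on streptavidin microbeads, then FACS-sorted. Anti-HA (expression) and streptavidin (reagent binding) fluorescence set low and high (top ~1%) gates. Polyreactivity labels come from the gate of origin. Genes were colony-PCR amplified, MiSeq 2 × 250 sequenced and filtered by CDR length.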

Row | Sequence | polyreactivity (PSR sort gate)
1 | QVQLVESGGGLVQAGGSLRLSCAASGRTFGGNAMGWYRQAPGKERELVAAITGRGGSTFYADSVKGRFTISRDNAKNTVYLQMNSLKPEDTAVYYCAKQFKRGYGYDYWGQGTQVTVSS | low polyreactivity
2 | QVQLVESGGGLVQAGGSLRLSCAASGRTFGGNAMGWYRQAPGKERELVAAITGRGGSTYYADSVKGRFTISRDNAKNTVYLQMNSLKPEDTAVYYCAKQFKRGYGYDYWGQGTQVTVSS | low polyreactivity
3 | QVQLVESGGGLVQAGGSLRLSCAASGRTFGGNGMGWYRQAPGKERELVASISFSGGAGTYYADSVKGRFTISRDIAKNTVYLQMNSLKPEDTAVYYCAKRYVTPTYRRYYWGQGTQVTVSS | high polyreactivity
4 | QVQLVESGGGLVQAGGSLRLSCAASGRTFGGNVRVWYRQAPGKERELVAAISYSGRSTHYAESVKGRFTISRDNAKNTVILQMNSLKPEDTAVYYCNKPFPYYPDGPNGYDYWGQGTKVTVSS | low polyreactivity
5 | QVQLVESGGGLVQAGGSLRLSCAASGRTFGGYALGWYRQAPGKARELVAAITWSDTSTYYADSVKGRFRFSRDNAKNTVYLQMNSLKPEDTAVYYCAAEQWYWWDDYWGKGTQVTVSS | high polyreactivity
6 | QVQLVESGGGLVQAGGSLRLSCAASGRTFGGYAMGWYRQAPGKERELVAAISSGGGTYADSVKGRFTISRDNAKNTVYLQMNSLKPEDTAVYYCAAGSRWYWAYKPTVHYYYWGQGTQVTVSS | high polyreactivity
7 | QVQLVESGGGLVQAGGSLRLSCAASGRTFGGYAMGWYRQAPGKERELVAAISYSGGSTYYADSVKGRFTISRDNAKNTVYLQMNSLKPEDTAVYYCAADGYDAYYWGQGTQVTVSS | low polyreactivity
8 | QVQLVESGGGLVQAGGSLRLSCAASGRTFGHNAMGWYRQAPGKERELVAAISASGSNTYYADSVKGRFTISRDNAKNTVYLQMNSLKPEDTAVYYCAKQVYRTGQQSRYDYWGQGTQVTVSS | low polyreactivity
9 | QVQLVESGGGLVQAGGSLRLSCAASGRTFGHYAMGWYRQAPGKERELVAAISCRGTSTYYADSVKGRFTISRDNAKNTVYLQMNSLKPEDTAVYYCAAVSVTSYRYDYWGQGTQVTVSS | high polyreactivity
10 | QVQLVESGGGLVQAGGSLRLSCAASGRTFGINAMGWYRQAPGKERELVADITDSGVSTYYADSVKGRFTISRDNAKNTVYLQMNSLKPEDTAVYYCNTGSYLFFLYGDDYWGQGTQVTVSS | low polyreactivity
11 | QVQLVESGGGLVQAGGSLRLSCAASGRTFGIYAMGRYRQAPGKERELVAAITGRGGSTHYADSVKGRFTISRDNAKNTVYLQMNSLKPEDTAVYYCAADYRYNRGITSNKDYDYWGQGTQVTVSS | low polyreactivity
12 | QVQLVESGGGLVQAGGSLRLSCAASGRTFGIYAMGWYRQAPGKERELVAAITWSGDSTYYADSVKGRVTISRDNAKNTVYLQMNSLKPEDTAVYYGAADYVGVTSVRYDYWGQGTQVTVSS | low polyreactivity
13 | QVQLVESGGGLVQAGGSLRLSCAASGRTFGIYAMGWYRQAPGKERELVADITIGGSTYYADSVKGRFTISRDNAKNTVYLQMNSLKPEDTAVYYCNADVVVQYYFTYYRVFTYDYWGQGTQVTVSS | low polyreactivity
14 | QVQLVESGGGLVQAGGSLRLSCAASGRTFGIYAMGWYRQAPGKERELVASISWSGGRTYYADSVKGRFTISRDNAKNTVYLQMNSLIPEDTAVYYCAAYGVYYPRSWQYFDWYGYWGQGTQVTVSS | high polyreactivity
15 | QVQLVESGGGLVQAGGSLRLSCAASGRTFGIYTMGWYRQAPGKERELVASTYYADSVKGRFTISRDNAKNTVYLQMNSLKPEDTAVYYCNVERLKKSQEWYGYPNDYWGQGTQVTVSS | low polyreactivity
16 | QVQLVESGGGLVQAGGSLRLSCAASGRTFGKYAMAWYRQAPGKERELVAAITTRVVITYYADSVKGRFTISRDNAKNTVYLQMNSLKPEDTAVYYCAADPEKIYRPVNHYYYWGQGTQVTVSS | low polyreactivity
17 | QVQLVESGGGLVQAGGSLRLSCAASGRTFGKYAMGWYIQAPGKEREFVAAISRSGGNTYYADSVKGRFTISRDNAKNTVYLQMNSLKPEDTAVYYCARGLSTYVLSHGLEYRTYYYWGQGTQVTVTS | high polyreactivity
18 | QVQLVESGGGLVQAGGSLRLSCAASGRTFGKYAMGWYRQAPGKERELVARISRRGGTTYYADSVKGRFTISRDNAKNTVYLQMNSLKPEDTAVYYCAAGGTYGAVEEAHDSWGHGTQVTVSS | high polyreactivity
19 | QVQLVESGGGLVQAGGSLRLSCAASGRTFGKYTMGWYRQAPGKQRELFAAINRRGGSTYYADSVKGRFTISRDNANNTVYLQMNSLKPEDTAVYYCSTDGYSIDRYYWGQGTQVTESS | high polyreactivity
20 | QVQLVESGGGLVQAGGSLRLSCAASGRTFGLNAMGWYIQAPGKERELVAAISGSGGRTYYADSVKGRFTISRDNAKNTVYLQMNSLKPEDTAVYYCARVPSGQLEYDYWGQGTQVTVSS | high polyreactivity
21 | QVQLVESGGGLVQAGGSLRLSCAASGRTFGLNAMGWYRQAPGKEMELVAAITSGGSTYYADSVKGRFTISRDNAKNTVYLQMNSLKPEDTAVYYCAVTYNGDSSWPGDYWGQGTQVTVSS | low polyreactivity
22 | QVQLVESGGGLVQAGGSLRLSCAASGRTFGLNAMGWYRQAPGKERELVAAITSGGSTYYADSVKGRFTISRDNAKNTVYLQMNSLKPEDTAVYYCAARYWRSYGISDILSDVDYWGQGTQVTVSS | low polyreactivity

Row | Sequence | polyreactivity (PSR sort gate)
23 | QVQLVESGGGLVQAGGSLRLSCAASGRTFGLNVMGWYRQAPGKERELVAAISRSGGSTYYADSVKGRFTISRDNAKNTVYLQMNSLKPEDTAVYYCAAVSRYYPYGYWGQGTQVTVSS | high polyreactivity
24 | QVQLVESGGGLVQAGGSLRLSCAASGRTFGLYAMGWYRQAPGKERELVAAISYSGGRTYYADSVKGRFTISRDNAKKTVYLQRNSLKPEDTAVYYCNKAWFPYYYYRFDYWGQGTQVTVSS | high polyreactivity
25 | QVQLVESGGGLVQAGGSLRLSCAASGRTFGLYAMGWYRQAPGKERELVASNTYSGGRTNYADSVKGRFTISRDNAKNTVYLQMNSLKPEDTAVYYCAASLWDDDSRLMYYWGQGTQVTVSS | high polyreactivity
26 | QVQLVESGGGLVQAGGSLRLSCAASGRTFGLYTKAWYIQAPGKERELVAAISSGGITYYADSVKGRFTISRDNAKNTVYLQMNSLKPEDTAVYYCAADFRTTRRYNYRYNYWGQGTQVTVSS | high polyreactivity
27 | QVQLVESGGGLVQAGGSLRLSCAASGRTFGNYAMGWSRQAPGKERELVAAITFRGGSTYYADSVKGRFTISRDNAKNTVYLQMNSLKPEDTAVYYCNAERYVGHTYFQFDYWGQGTQVTVSS | high polyreactivity
28 | QVQLVESGGGLVQAGGSLRLSCAASGRTFGNYAMGWYRQAPGKERELVASITYTVGNTYYADSVKGRFTISRDNAKNTVYLQMNSLKPEDTAVYYCAADGFYLQFYHYDYWGQGTQVTVSS | low polyreactivity
29 | QVQLVESGGGLVQAGGSLRLSCAASGRTFGPNAMGWYRQAPGKEMELVATITYIGGSTYYADSVKGRFTISRDNAKNTVYLQMNSLKPEDTAVYYCAKRGGSYKEGDSWGQGTQVTVSS | low polyreactivity
30 | QVQLVESGGGLVQAGGSLRLSCAASGRTFGPYALGWYRQAPGKERELVATSSSNGASTYYADSVKGRFTISRDNAKNTVYLQMNSLKPEDTAVYYCAAEFHFWGYLYDYWGQGTQVTVSS | low polyreactivity
31 | QVQLVESGGGLVQAGGSLRLSCAASGRTFGPYAMGWYRQAPGKEREFVAAISYSGGSTYYADSVKGRFTISRDNAKNTVYLQMNSLKPEDTAVYYCAAETYYGRIYWYIRDYWGQGTQVTVSS | low polyreactivity
32 | QVQLVESGGGLVQAGGSLRLSCAASGRTFGPYAMGWYRQAPGKERELVAAISSSEGSTYYADSVKGRFTISRDNAKNTVYLQMNSLKPEDTAVYYCNARYYLWSTTRWYGYDYWGQGTQVTVSS | high polyreactivity
33 | QVQLVESGGGLVQAGGSLRLSCAASGRTFGPYAMGWYRQAPGKERELVATISSNGASTYYADSVKGRFTISRDNAKNTVYLQMNSLKPEDTAVYYCAAEFHFWGYLYDYWGQGTQVTVSS | low polyreactivity
34 | QVQLVESGGGLVQAGGSLRLSCAASGRTFGPYTMGWYRQAPGKEREFVAAINSSGSRTYYADSVKGRFTISRDNAKNTVYLQMNSLKPEDTAVYYCAAEAKWYYSWSYPYEGDYWGQGSQVTVSS | low polyreactivity
35 | QVQLVESGGGLVQAGGSLRLSCAASGRTFGQNAMGWYRQAPGKERELVAAISASGSNTYYADSVKGRFTISRDHAKNTVYLQMNSLKPEDTAVYYCAKQVYRPGQQSRYDYWGQGTQVTVSS | low polyreactivity
36 | QVQLVESGGGLVQAGGSLRLSCAASGRTFGQYAMGWYRQAPGKERELVAAISWGGGRTYYADSVKGRFTISRDNAKNTVYLQMNSLKPEDTAVYYCNAVYSPRYYVGGYDYWGQGTQVTVSS | high polyreactivity
37 | QVQLVESGGGLVQAGGSLRLSCAASGRTFGRNALGWYRQAPGKEREFVAAISRRGDTTYYADSVKGRFTISRDNAKNTVYLQMNSLKPEDTAVYYCNADVIKDRFYWYYYWGQGTQVTVSS | low polyreactivity
38 | QVQLVESGGGLVQAGGSLRLSCAASGRTFGRNAMGWYRQAPGKEMELVAAISWTGGNTYYADSVKGRFTISRDNAKNTVYLQMNSLKPEDTAVYYCAARGRYVTPQPSYDYWGQGTQVTVSS | high polyreactivity
39 | QVQLVESGGGLVQAGGSLRLSCAASGRTFGRNAMGWYRQAPRKERELVAAISDRGVSTYYADSVKGRFTISRDNAKNTVYLQMNSLKPEDTAVYYCAAVFWVDILPGDYWGQGTQVTVSS | low polyreactivity
40 | QVQLVESGGGLVQAGGSLRLSCAASGRTFGRYAMGWSRQAPGKERELVAAINRGGSTKYADSVKGRFTISRDNAKNTVYLQMNSLKPEDTAVYYCAKDRHPAVHYDYWGQGTQVTVSS | low polyreactivity
41 | QVQLVESGGGLVQAGGSLRLSCAASGRTFGRYAMGWYRQAPGKEREFVASISRRGGSTNYADSVKGRFTISRDNAKNTVYLQMNSLKPEDTAVYYCAKRFTLPLSEYDYWGQGTQVTVSS | high polyreactivity
42 | QVQLVESGGGLVQAGGSLRLSCAASGRTFGRYAMGWYRQAPGKERELVAAISIRGGRTTYADSVKGRFTISRDNAKNTVYLQMNSLKPEDTAVSYCAKVISVRGGYGYWGQGTQVTVSS | high polyreactivity
43 | QVQLVESGGGLVQAGGSLRLSCAASGRTFGRYAMGWYRQAPGKERELVAAITRGGSTNYADSVKGRFTISRDNAKNTVYLQMNSLKPEDTAVYYCAKSVRYRYDYWGQGTQVTVSS | high polyreactivity
